In PMC2679207, “GLS-1, a Novel P Granule Component, Modulates a Network of Conserved RNA Regulators to Influence Germ Cell Fate Decisions” (PLoS Genetics, 2009):

Target: T1, GLD-3L with C-terminal His tag, MBP cleaved off (C. elegans, UniProt Q95ZK7-1 1-969)
T1 construct: GLD-3, C. elegans, isoform GLD-3L; also called GLD-3L^6His; source: insect cells, purified on amylose beads, MBP cleaved off by PreScission protease; not shown: MBP, N-terminal, cleaved; His6, C-terminal, kept
T1 sequence (looked up): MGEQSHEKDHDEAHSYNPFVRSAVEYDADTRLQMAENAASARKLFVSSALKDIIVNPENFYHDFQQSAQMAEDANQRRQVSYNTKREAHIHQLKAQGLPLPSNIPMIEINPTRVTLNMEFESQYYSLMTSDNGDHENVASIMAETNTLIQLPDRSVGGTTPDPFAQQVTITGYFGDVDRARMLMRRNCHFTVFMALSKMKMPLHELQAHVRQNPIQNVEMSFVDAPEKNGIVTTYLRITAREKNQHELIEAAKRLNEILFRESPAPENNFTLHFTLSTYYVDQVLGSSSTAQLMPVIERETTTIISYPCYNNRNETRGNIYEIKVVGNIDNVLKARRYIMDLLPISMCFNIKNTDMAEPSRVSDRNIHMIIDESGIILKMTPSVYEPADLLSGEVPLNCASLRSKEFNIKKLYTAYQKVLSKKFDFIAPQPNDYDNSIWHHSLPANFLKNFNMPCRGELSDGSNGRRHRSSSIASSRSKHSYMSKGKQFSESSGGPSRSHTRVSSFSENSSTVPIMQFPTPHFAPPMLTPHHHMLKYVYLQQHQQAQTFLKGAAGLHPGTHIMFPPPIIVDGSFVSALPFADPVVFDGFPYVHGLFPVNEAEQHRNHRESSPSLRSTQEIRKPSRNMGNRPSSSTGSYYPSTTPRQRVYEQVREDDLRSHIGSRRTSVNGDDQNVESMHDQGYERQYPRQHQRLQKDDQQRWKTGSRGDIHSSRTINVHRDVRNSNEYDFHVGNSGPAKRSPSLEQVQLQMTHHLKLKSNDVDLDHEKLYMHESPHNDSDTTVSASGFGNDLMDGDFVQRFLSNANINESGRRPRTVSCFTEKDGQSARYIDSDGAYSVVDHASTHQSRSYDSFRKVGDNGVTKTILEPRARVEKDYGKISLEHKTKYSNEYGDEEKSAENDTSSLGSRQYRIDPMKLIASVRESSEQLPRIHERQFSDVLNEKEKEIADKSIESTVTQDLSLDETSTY
Assay: pull-down; competition assay; MBP-FBF-1 immobilized on amylose beads, loaded with GLD-3L, then challenged with increasing amounts of free GLS-1; washed; GLD-3L on beads quantified from Western blot bands
Details: both partners purified

binding result: binds
B1: MBP-FBF-1 with C-terminal His tag, from insect cells (natural protein, C. elegans, UniProt Q9N5M6 1-614, looked up)
chain: MDQSKMRYTNQFRKTPQKPTSTEVGNHHTPAHSPMAQHETSMWNFNSLNPYFSMLNMNDGMNYARHQQNHIVTSRPPTPLTDLMSLRSFQSFPNVFMPVSRSRTSSFIQSDTDSSRLEPDDFSQNVRYCSTEIDRNNSSSKNDHLKYSRPALSRNSRSFTRSNNVLPTWSLDSNGEMRSRLSLSEVLDSGDLMKFAVDKTGCQFLEKAVKGSLTSYQKFQLFEQVIGRKDDFLKLSTNIFGNYFVQEIIGMSLTTYDDDNIKRQEKLKNFISSQMTDMCLDKFACRVIQSSLQNMDLSLACKLVQALPRDARLIAICVDQNANHVIQKVVAVIPLKNWEFIVDFVATPEHLRQICFDKYGCRVVQTIIEKLTADSINVDLTSAAQHLRERALQRLMTSVTNRCQELATNEYANYIIQHIVSNDDLAVYRECIIEKCLMRNLLSLSQEKFASHVVEKAFLHAPMELLAEMMDEIFDGYMPHPGTGKDALDIMMFHQFGNYVVQCMLTICCDAVSGRRQTKEGSYDHANSFQVWLKKLHSRVTKERHRLSRFSSGKKMIETLAHLRSTHPIYGLQSSGHESFKTDCFSTASEHDGLELEKNGIEEGNLRLMRTFSP
notes: FBF-1, PUF protein, C. elegans; also called MBP-FBF-1^6His; source: insect cells, purified on amylose beads; not shown: His6, C-terminal, kept
